Common to all, as to assay: NMR
Common to all, as to conditions: 298 K, 150 mM NaCl, 20 mM HEPES, 1 mM TCEP (working buffer), apo (no Ni(II)), intrinsically disordered, Cys394 reduced

Data set [1] concerns the target His345 (UniProt position 345, …).
The target in data set [2] is His371 (UniProt position 371, …).
In data set [3] the target is His355 (UniProt position 355, …).
In data set [4] the target is His365 (UniProt position 365, …).

B1: N-myc downstream-regulated gene 1 protein, C-terminal intrinsically disordered region (hNDRG1*C) (Homo sapiens) (protein)
chain: GMGYMPSASMTRLMRSRTASGSSVTSLDGTRSRSHTSEGTRSRSHTSEGTRSRSHTSEGAHLDITPNSGAAGNSAGPKSMEVSC
As for B1, the pKa (as a rule, the pH at which an ionisable group is half protonated) in data set [1] was found to be 6.65; in data set [2], 6.84; in data set [3], 6.65; in data set [4], 6.72.

These data come from PMC9496542.
